According to patent US20060165683A1, “Methods and compositions for control of bone formation via modulation of sympathetic tone” (priority 2001, published 2006):

How the values were obtained:
[1] = tested on: murine primary osteoblasts; test: cAMP production in murine primary osteoblasts; type: cell-based, mouse; settings: confluent cultures, 100 μM IBMX, 5 min treatment; PTH as positive control
Method: Primary osteoblast cultures were established as previously described (see, e.g., Ducy et al., 2000, Cell 100: 197-207) and maintained in αMEM/0.1 mg/ml ascorbic acid supplemented with 10% FBS. SaOS-2 were grown in MEM/10% FBS. For cAMP assay confluent cultures were incubated with serum free medium containing 100 μM IBMX (3-isobutyl-1-methylxanthine, Sigma) for 8 minutes before PBS, PTH(1-34) (Bachem), isoproterenol, norepinephrine, phenylephrine (Sigma) or propranolol were added for 5 min. Intracellular cAMP concentration was measured by immunoassay (R&D Systems). For gene expression analyses, primary osteoblasts were treated for 72 hours with appropriate drugs in 0.1% FBS. Hormone serum levels were quantified using immunoassays kits from Peninsula Laboratories (Insulin) or Alpco Diagnostics (leptin). Deoxypyridinoline cross-links and Creatinine were measured in morning urines using the Quidel kits. a1(I) leptin bioactivity was verified by cotransfection of 293 cells expressing ObRb with a STAT3-responsive-luc reporter construct, pSVβgal plasmid and a1(I) leptin expression vector or mock. Twenty-four hours later luciferase and β-galactosidase activities were measured. Data represents ratios of luciferase/β-galactosidase activities, and values are mean of 6 independent transfection experiments.
For a sympathetic regulation of bone formation to exist several requirements have to be fulfilled. The first one is that functional adrenergic receptors are present on osteoblasts. […] Immunohistochemical analysis of long bones from transgenic mice expressing LacZ under the control of the osteoblast-specific fragment of the a1(I) collagen promoter verified the presence of β2-adrenergic receptors on osteoblasts (FIG. 13B). No other adrenergic receptor subtype could be detected. […] Electron micrographs confirmed the presence of unmyelinated peripheral nerve axons coursing through the marrow adjacent to bone trabeculae and to osteoblasts (FIG. 13E). β-adrenergic receptors are G-coupled receptors that signal through the cAMP pathway (see, e.g., Benovic et al., 1988, Annu Rev Cell Biol 4:405-428). Thus, to assess the biologic relevance of the presence of β2-adrenergic receptors on osteoblasts, these cells were treated with isoproterenol, a β-adrenergic agonist, alone or in the presence of propranolol, a β-adrenergic receptor antagonist; with norepinephrine, the natural ligand of β-adrenergic receptors; with phenylephrine, an α-adrenergic agonist or with vehicle and measured cAMP production. As a positive control, parathyroid hormone (PTH) that binds to another G-coupled receptor present in osteoblasts was used (Gardella & Juppner, 2001, Trends Endocrinol Metab 12:210-217.). […] These effects were abolished by propranolol treatment. […]

wildtype mice = test: Central (ICV) infusion of leptin in wildtype mice; type: in vivo, mouse
Method: (§1) Wildtype (C57BL/6J) and mutant (C57BL/6J A^y/a, C57BL/6J ob/ob) mice were obtained from the Jackson laboratory and adrenal medullectomized mice from Harlan Tecklad laboratory. Dbh−/− mice were rescued as previously described (Thomas et al., 1998, Neurochem 70:2468-2476). Isoproterenol (Sigma) was injected intraperitoneally (ip) once daily for 6 weeks at 30 mg/kg (wt) or 3 mg/kg (ob/ob). Propranolol (Sigma) was added to the drinking water at a concentration of 0.5 g/l. For ICV infusion, a 28-gauge cannula (Brain infusion kit II, Alza) was implanted into the third ventricle as previously described infusing human leptin (Sigma) at 8 ng/hr or MT-II at 125 ng/hr (Phoenix Pharmaceuticals) for 28 days (see, e.g., Ducy et al., 2000, Cell 100: 197-207). The cannula was connected to an osmotic pump (Alza) placed in the dorsal subcutaneous space of the animal. For parabiosis longitudinal incisions were made in the skin and in the peritoneal cavity along one side on each mouse. Edges of the incisions were connected by suture to induce coelioanastomosis. Cross-circulation was quantified by injecting 1 ml/kg 0.25% Evans blue into the tail vein of one mouse of the parabiosed pair. After 30 min. blood was collected from both mice by retroorbital bleeding and the blood exchange rate was calculated according to standard techniques (see, e.g., Harris & Martin, 1984, Am J Physiol 247:R380-386). […]

MSG-lesioned ob/ob mice = test: Leptin ICV infusion in MSG-lesioned ob/ob mice; type: in vivo, mouse
Method: as §1

GTG-treated ob/ob mice = test: Leptin ICV infusion in GTG-treated ob/ob mice; type: in vivo, mouse
Method: as §1

[2] = tested on: propranolol-treated wt mice; test: Leptin ICV infusion in propranolol-treated mice; type: in vivo, mouse; settings: centrally delivered leptin
Method: as §1

**Q.** Which cAMP production [1] does the source give for `CC(C)NCC(O)c1ccc(O)c(O)c1` (centres unmarked) [isoproterenol] here?
**A.** increased

B1: leptin: polypeptide hormone, product of the ob gene; human leptin (Sigma) infused ICV (protein)
chain: VPIQKVQDDTKTLIKTIVTRINDISHTQSVSAKQRVTGLDFIPGLHPILSLSKMDQTLAVYQQVLTSLPSQNVLQIANDLENLRDLLHLLAFSKSCSLPQTSGLQKPESLDGVLEASLYSTEVVALSRLQGSLQDILQQLDVSPEC
**Q.** With B1 as the molecule, how does the “bone mass / bone volume and bone formation parameters” value (wildtype mice) read?
**A.** decreased

**Q.** And the Bone Volume (MSG-lesioned ob/ob mice)?
**A.** decreases

**Q.** And the body weight (MSG-lesioned ob/ob mice)?
**A.** does not affect

**Q.** And the body weight (GTG-treated ob/ob mice)?
**A.** decreased

**Q.** And the bone mass (GTG-treated ob/ob mice)?
**A.** failed to decrease

**Q.** And the bone mass [2]?
**A.** did not affect

**Q.** What about the fat pads [2] of the same molecule?
**A.** disappearance
